Measurements: patent publication US20250333467A1 (TECTONIC OPERATING, published 2025)

Molecular target: T1, human RXFP1 (human, UniProt Q9HBX9 1-757)
T1 sequence (looked up): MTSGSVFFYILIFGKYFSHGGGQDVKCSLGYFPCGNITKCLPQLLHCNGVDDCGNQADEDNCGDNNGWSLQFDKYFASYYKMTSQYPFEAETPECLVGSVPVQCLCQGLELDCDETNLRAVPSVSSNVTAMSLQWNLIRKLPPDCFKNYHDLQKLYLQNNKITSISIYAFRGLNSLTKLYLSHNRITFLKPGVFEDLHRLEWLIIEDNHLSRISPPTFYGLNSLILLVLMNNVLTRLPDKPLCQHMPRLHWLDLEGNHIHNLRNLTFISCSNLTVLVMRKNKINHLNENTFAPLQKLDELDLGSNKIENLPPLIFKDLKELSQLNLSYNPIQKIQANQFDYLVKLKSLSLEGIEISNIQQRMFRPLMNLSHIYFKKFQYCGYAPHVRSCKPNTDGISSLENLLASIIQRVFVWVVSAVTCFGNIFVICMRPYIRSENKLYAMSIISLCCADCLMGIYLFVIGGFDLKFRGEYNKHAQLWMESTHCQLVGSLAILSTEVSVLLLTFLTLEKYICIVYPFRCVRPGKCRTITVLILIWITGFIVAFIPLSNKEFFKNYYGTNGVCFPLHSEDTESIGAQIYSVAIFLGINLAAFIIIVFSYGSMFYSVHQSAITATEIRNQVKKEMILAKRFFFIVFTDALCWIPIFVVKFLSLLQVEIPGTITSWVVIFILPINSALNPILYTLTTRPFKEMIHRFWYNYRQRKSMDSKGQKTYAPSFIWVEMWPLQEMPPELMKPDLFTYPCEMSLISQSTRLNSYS
Assay: cell-based or functional assay

Binder	Potency (cAMP, transient hRXFP1 in HEK293) [µM]
SEQ ID NO: 133 (Fc fusion) DKTHTCPPCPAPEAAGGPSVFLFPPKPKDTLMISRTPEVTCVVVDVSHEDPEVKFNWYVDGVEVHNAKTKPREEQYNSTYRVVSVLTVLHQDWLNGKEYKCKVSNKALAAPIEKTISKAKGQPREPQVYTLPPSRDELTKNQVSLTCLVKGFYPSDIAVEWESNGQPENNYKTTPPVLDSDGSFFLYSKLTVDKSRWQQGNVFSCSVLHEALHSHYTQKSLSLSPGKGGSDSYQEEVIKLCGRELVRAQIAICGKSTASDAAGAEAEAGARQLYSALANKCCYVGCTKQSLAQFC	0.0306
SEQ ID NO: 134 (Fc fusion) DKTHTCPPCPAPEAAGGPSVFLFPPKPKDTLMISRTPEVTCVVVDVSHEDPEVKFNWYVDGVEVHNAKTKPREEQYNSTYRVVSVLTVLHQDWLNGKEYKCKVSNKALAAPIEKTISKAKGQPREPQVYTLPPSRDELTKNQVSLTCLVKGFYPSDIAVEWESNGQPENNYKTTPPVLDSDGSFFLYSKLTVDKSRWQQGNVFSCSVLHEALHSHYTQKSLSLSPGKGGSDSYQEEVIKLCGRELVRAQIAICGKSTASDAAGAEAEAGARQLYSALANKCCKVGCTKQSLAQFC	0.0216
SEQ ID NO: 135 (Fc fusion) DKTHTCPPCPAPEAAGGPSVFLFPPKPKDTLMISRTPEVTCVVVDVSHEDPEVKFNWYVDGVEVHNAKTKPREEQYNSTYRVVSVLTVLHQDWLNGKEYKCKVSNKALAAPIEKTISKAKGQPREPQVYTLPPSRDELTKNQVSLTCLVKGFYPSDIAVEWESNGQPENNYKTTPPVLDSDGSFFLYSKLTVDKSRWQQGNVFSCSVLHEALHSHYTQKSLSLSPGKGGSDSYQEEVIKLCGRELVRAQIAICGKSTGGEGSGGEGEGGGRQLYSALANKCCYVGCTKQSLAQFC	0.0295
SEQ ID NO: 136 (Fc fusion) DKTHTCPPCPAPEAAGGPSVFLFPPKPKDTLMISRTPEVTCVVVDVSHEDPEVKFNWYVDGVEVHNAKTKPREEQYNSTYRVVSVLTVLHQDWLNGKEYKCKVSNKALAAPIEKTISKAKGQPREPQVYTLPPSRDELTKNQVSLTCLVKGFYPSDIAVEWESNGQPENNYKTTPPVLDSDGSFFLYSKLTVDKSRWQQGNVFSCSVLHEALHSHYTQKSLSLSPGKGGSDSYQEEVIKLCGRELVRAQIAICGKSTGGEGSGGEGEGGGRQLYSALANKCCKVGCTKQSLAQFC	0.0176
SEQ ID NO: 137 (Fc fusion) DKTHTCPPCPAPEAAGGPSVFLFPPKPKDTLMISRTPEVTCVVVDVSHEDPEVKFNWYVDGVEVHNAKTKPREEQYNSTYRVVSVLTVLHQDWLNGKEYKCKVSNKALAAPIEKTISKAKGQPREPQVYTLPPSRDELTKNQVSLTCLVKGFYPSDIAVEWESNGQPENNYKTTPPVLDSDGSFFLYSKLTVDKSRWQQGNVFSCSVLHEALHSHYTQKSLSLSPGKGGSDSYQEEVIKLCGRELVRAQIAICGKSTGGEGSGGEGSGGGRQLYSALANKCCYVGCTKQSLAQFC	0.0114
SEQ ID NO: 138 (Fc fusion) DKTHTCPPCPAPEAAGGPSVFLFPPKPKDTLMISRTPEVTCVVVDVSHEDPEVKFNWYVDGVEVHNAKTKPREEQYNSTYRVVSVLTVLHQDWLNGKEYKCKVSNKALAAPIEKTISKAKGQPREPQVYTLPPSRDELTKNQVSLTCLVKGFYPSDIAVEWESNGQPENNYKTTPPVLDSDGSFFLYSKLTVDKSRWQQGNVFSCSVLHEALHSHYTQKSLSLSPGKGGSDSYQEEVIKLCGRELVRAQIAICGKSTGGEGSGGEGSGGGRQLYSALANKCCKVGCTKQSLAQFC	0.0075
SEQ ID NO: 119 (Fc fusion) DKTHTCPPCPAPEAAGGPSVFLFPPKPKDTLMISRTPEVTCVVVDVSHEDPEVKFNWYVDGVEVHNAKTKPREEQYNSTYRVVSVLTVLHQDWLNGKEYKCKVSNKALAAPIEKTISKAKGQPREPQVYTLPPSRDELTKNQVSLTCLVKGFYPSDIAVEWESNGQPENNYKTTPPVLDSDGSFFLYSKLTVDKSRWQQGNVFSCSVLHEALHSHYTQKSLSLSPGKGGSDSYQEEVIKLCGRELVRAQIAICGKSTASDAAGAEAEAGARQLYSALANKCCHVGCTKRSLAQFC	0.0049
SEQ ID NO: 120 (Fc fusion) DKTHTCPPCPAPEAAGGPSVFLFPPKPKDTLMISRTPEVTCVVVDVSHEDPEVKFNWYVDGVEVHNAKTKPREEQYNSTYRVVSVLTVLHQDWLNGKEYKCKVSNKALAAPIEKTISKAKGQPREPQVYTLPPSRDELTKNQVSLTCLVKGFYPSDIAVEWESNGQPENNYKTTPPVLDSDGSFFLYSKLTVDKSRWQQGNVFSCSVLHEALHSHYTQKSLSLSPGKGGSDSFQEEVIKLCGRELVRAQIAICGKSTASDAAGAEAEAGARQLYSALANKCCHVGCTKRSLAQFC	0.0048
SEQ ID NO: 121 (Fc fusion) DKTHTCPPCPAPEAAGGPSVFLFPPKPKDTLMISRTPEVTCVVVDVSHEDPEVKFNWYVDGVEVHNAKTKPREEQYNSTYRVVSVLTVLHQDWLNGKEYKCKVSNKALAAPIEKTISKAKGQPREPQVYTLPPSRDELTKNQVSLTCLVKGFYPSDIAVEWESNGQPENNYKTTPPVLDSDGSFFLYSKLTVDKSRWQQGNVFSCSVLHEALHSHYTQKSLSLSPGKGGSDSLQEEVIKLCGRELVRAQIAICGKSTASDAAGAEAEAGARQLYSALANKCCHVGCTKRSLAQFC	0.0055
SEQ ID NO: 122 (Fc fusion) DKTHTCPPCPAPEAAGGPSVFLFPPKPKDTLMISRTPEVTCVVVDVSHEDPEVKFNWYVDGVEVHNAKTKPREEQYNSTYRVVSVLTVLHQDWLNGKEYKCKVSNKALAAPIEKTISKAKGQPREPQVYTLPPSRDELTKNQVSLTCLVKGFYPSDIAVEWESNGQPENNYKTTPPVLDSDGSFFLYSKLTVDKSRWQQGNVFSCSVLHEALHSHYTQKSLSLSPGKGGSDSIQEEVIKLCGRELVRAQIAICGKSTASDAAGAEAEAGARQLYSALANKCCHVGCTKRSLAQFC	0.0065
SEQ ID NO: 123 (Fc fusion) DKTHTCPPCPAPEAAGGPSVFLFPPKPKDTLMISRTPEVTCVVVDVSHEDPEVKFNWYVDGVEVHNAKTKPREEQYNSTYRVVSVLTVLHQDWLNGKEYKCKVSNKALAAPIEKTISKAKGQPREPQVYTLPPSRDELTKNQVSLTCLVKGFYPSDIAVEWESNGQPENNYKTTPPVLDSDGSFFLYSKLTVDKSRWQQGNVFSCSVLHEALHSHYTQKSLSLSPGKGGSDSWQEEVIKLCGRELVRAQIAICGKSTASDAAGAEAEAGARQLYSALANKCCYVGCTKRSLAQFC	0.0117
SEQ ID NO: 124 (Fc fusion) DKTHTCPPCPAPEAAGGPSVFLFPPKPKDTLMISRTPEVTCVVVDVSHEDPEVKFNWYVDGVEVHNAKTKPREEQYNSTYRVVSVLTVLHQDWLNGKEYKCKVSNKALAAPIEKTISKAKGQPREPQVYTLPPSRDELTKNQVSLTCLVKGFYPSDIAVEWESNGQPENNYKTTPPVLDSDGSFFLYSKLTVDKSRWQQGNVFSCSVLHEALHSHYTQKSLSLSPGKGGSDSWQEEVIKLCGRELVRAQIAICGKSTASDAAGAEAEAGARQLYSALANKCCLVGCTKRSLAQFC	0.0208
SEQ ID NO: 125 (Fc fusion) DKTHTCPPCPAPEAAGGPSVFLFPPKPKDTLMISRTPEVTCVVVDVSHEDPEVKFNWYVDGVEVHNAKTKPREEQYNSTYRVVSVLTVLHQDWLNGKEYKCKVSNKALAAPIEKTISKAKGQPREPQVYTLPPSRDELTKNQVSLTCLVKGFYPSDIAVEWESNGQPENNYKTTPPVLDSDGSFFLYSKLTVDKSRWQQGNVFSCSVLHEALHSHYTQKSLSLSPGKGGSDSWQEEVIKLCGRELVRAQIAICGKSTASDAAGAEAEAGARQLYSALANKCCQVGCTKRSLAQFC	0.0111
SEQ ID NO: 126 (Fc fusion) DKTHTCPPCPAPEAAGGPSVFLFPPKPKDTLMISRTPEVTCVVVDVSHEDPEVKFNWYVDGVEVHNAKTKPREEQYNSTYRVVSVLTVLHQDWLNGKEYKCKVSNKALAAPIEKTISKAKGQPREPQVYTLPPSRDELTKNQVSLTCLVKGFYPSDIAVEWESNGQPENNYKTTPPVLDSDGSFFLYSKLTVDKSRWQQGNVFSCSVLHEALHSHYTQKSLSLSPGKGGSDSWQEEVIKLCGRELVRAQIAICGKSTASDAAGAEAEAGARQLYSALANKCCKVGCTKRSLAQFC	0.0083
SEQ ID NO: 127 (Fc fusion) DKTHTCPPCPAPEAAGGPSVFLFPPKPKDTLMISRTPEVTCVVVDVSHEDPEVKFNWYVDGVEVHNAKTKPREEQYNSTYRVVSVLTVLHQDWLNGKEYKCKVSNKALAAPIEKTISKAKGQPREPQVYTLPPSRDELTKNQVSLTCLVKGFYPSDIAVEWESNGQPENNYKTTPPVLDSDGSFFLYSKLTVDKSRWQQGNVFSCSVLHEALHSHYTQKSLSLSPGEGGSDSYQEEVIKLCGRELVRAQIAICGKSTASDAAGAEAEAGARQLYSALANKCCYVGCTKRSLAQFC	0.032
SEQ ID NO: 128 (Fc fusion) DKTHTCPPCPAPEAAGGPSVFLFPPKPKDTLMISRTPEVTCVVVDVSHEDPEVKFNWYVDGVEVHNAKTKPREEQYNSTYRVVSVLTVLHQDWLNGKEYKCKVSNKALAAPIEKTISKAKGQPREPQVYTLPPSRDELTKNQVSLTCLVKGFYPSDIAVEWESNGQPENNYKTTPPVLDSDGSFFLYSKLTVDKSRWQQGNVFSCSVLHEALHSHYTQKSLSLSPGEGGSDSYQEEVIKLCGRELVRAQIAICGKSTASDAAGAEAEAGARQLYSALANKCCKVGCTKRSLAQFC	0.0232
